Laboratory results taken from patent US20040005648A1, “PYK2 related products and methods” (Sugen, Inc., priority 1994, published 2004).

How the values were obtained:
Shc = assay: Tyrosine phosphorylation of Shc in stimulated PC12 cells (anti-Shc immunoprecipitation, anti-phosphotyrosine immunoblot); format: cell-based, rat
Procedure: Tyrosine phosphorylation of Shc in response to bradykinin, carbachol, PMA and other stimuli was also measured. Quiescent PC12 cells were stimulated for 5 min at 37° C. with bradykinin (1AM), carbachol (1 mM), KC1 (75 mM), PMA (1.6pM), NGF (100 ng/ml), or left unstimulated (−). The cells were also stimulated with carbachol (1 mM) or potassium chloride (75 mM) in the presence of 3 mM EGTA. Stimulations with DMPP (100 μM) or muscarine (1 mM) were preformed under the same conditions. […] The Shc proteins were immunoprecipitated with anti-Shc antibodies, the immunoprecipitates were resolved by SDS-PAGE (8%1, transferred to nitrocellulose and immunoblotted with anti-phosphotyrosine antibodies.

PYK-2 = assay: Tyrosine phosphorylation of PYK-2 in NIH3T3 cell lines that overexpress PYK-2; format: cell-based, mouse; conditions: NIH3T3 cells overexpressing PYK-2 / PYK-2-HA; TPA 6 μM, 15 min at 37° C.
Procedure: Stable cell lines of NIH3T3 that overexpress PYK2 were established by contransfection of PYK2 subcloned into pLSV together with pSV2neo utilizing lipofectamine reagent (GIBCO BRL). Following transfection the cells were grown in Dulbecco's modified Eagle's medium containing 10% fetal bovine serum and 1 mg/ml G418. Transient transfections into 293 cells were performed by using the calcium phosphate technique (*).
The PYK-2 cDNA cloned in PLSV was cotransfected with pSV2neo into PC12 cells and NIH3T3 in order to establish stable cell lines. G418 resistant colonies were screened by immunoprecipitating and immunoblotting.
NIH3T3 cell lines were established that overexpress the PYK-2 and the PYK-2-HA protein. […] The level of phosphorylation is not so high.

B1: NGF: growth factor stimulus of PC12 cells (protein, UniProt P25427 122-241, looked up)
Beta-nerve growth factor: SSTHPVFHMGEFSVCDSVSVWVGDKTTATDIKGKEVTVLGEVNINNSVFKQYFFETKCRAPNPVESGCRGIDSKHWNSYCTTTHTFVKALTTDDKQAAWRFIRIDTACVCVLSRKAARRG
modifications: Beta-nerve growth factor
notes: growth factor stimulus of PC12 cells
- duration of stimulation of Shc phosphorylation after addition (Shc): five
- tyrosine phosphorylation of Shc in response to the agent (Shc): induced persistent stimulation of Shc phosphorylation

B2: EGF: growth factor stimulus (protein, UniProt P01133 23-1207, looked up)
Pro-epidermal growth factor: PQHWSCPEGTLAGNGNSTCVGPAPFLIFSHGNSIFRIDTEGTNYEQLVVDAGVSVIMDFHYNEKRIYWVDLERQLLQRVFLNGSRQERVCNIEKNVSGMAINWINEEVIWSNQQEGIITVTDMKGNNSHILLSALKYPANVAVDPVERFIFWSSEVAGSLYRADLDGVGVKALLETSEKITAVSLDVLDKRLFWIQYNREGSNSLICSCDYDGGSVHISKHPTQHNLFAMSLFGDRIFYSTWKMKTIWIANKHTGKDMVRINLHSSFVPLGELKVVHPLAQPKAEDDTWEPEQKLCKLRKGNCSSTVCGQDLQSHLCMCAEGYALSRDRKYCEDVNECAFWNHGCTLGCKNTPGSYYCTCPVGFVLLPDGKRCHQLVSCPRNVSECSHDCVLTSEGPLCFCPEGSVLERDGKTCSGCSSPDNGGCSQLCVPLSPVSWECDCFPGYDLQLDEKSCAASGPQPFLLFANSQDIRHMHFDGTDYGTLLSQQMGMVYALDHDPVENKIYFAHTALKWIERANMDGSQRERLIEEGVDVPEGLAVDWIGRRFYWTDRGKSLIGRSDLNGKRSKIITKENISQPRGIAVHPMAKRLFWTDTGINPRIESSSLQGLGRLVIASSDLIWPSGITIDFLTDKLYWCDAKQSVIEMANLDGSKRRRLTQNDVGHPFAVAVFEDYVWFSDWAMPSVMRVNKRTGKDRVRLQGSMLKPSSLVVVHPLAKPGADPCLYQNGGCEHICKKRLGTAWCSCREGFMKASDGKTCLALDGHQLLAGGEVDLKNQVTPLDILSKTRVSEDNITESQHMLVAEIMVSDQDDCAPVGCSMYARCISEGEDATCQCLKGFAGDGKLCSDIDECEMGVPVCPPASSKCINTEGGYVCRCSEGYQGDGIHCLDIDECQLGEHSCGENASCTNTEGGYTCMCAGRLSEPGLICPDSTPPPHLREDDHHYSVRNSDSECPLSHDGYCLHDGVCMYIEALDKYACNCVVGYIGERCQYRDLKWWELRHAGHGQQQKVIVVAVCVVVLVMLLLLSLWGAHYYRTQKLLSKNPKNPYEESSRDVRSRRPADTEDGMSSCPQPWFVVIKEHQDLKNGGQPVAGEDGQAADGSMQPTSWRQEPQLCGMGTEQGCWIPVSSDKGSCPQVMERSFHMPSYGTQTLEGGVEKPHSLLSANPLWQQRALDPPHQMELTQ
modifications: Pro-epidermal growth factor
notes: growth factor stimulus
- tyrosine phosphorylation of PYK-2 in response to the agent (PYK-2): undergoes tyrosine phosphorylation
